Data: patent US20160108123A1 (Novartis, published 2016)

What was measured:
[1] = target: T1, human PD-L1 expressed on 300.19 cells (human, UniProt Q9NZQ7 19-290); experiment: competition FACS against Alexa 488-labeled murine BAP058 on PD-L1-expressing 300.19 cells
T1 construct: whole, on cells; also called huPD-L1; PD-L1-expressing 300.19 cells
Protocol: Incubations with the mAb mixtures having different concentration ratios of test mAb to labeled mAb was at 4° C. for 30 min. Bound labeled murine mAb was then quantified using a FACS machine. The experiment was performed twice.

[2] = target: T1, human PD-L1 expressed on 300.19 cells; experiment: semi-quantitative ranking in the binding studies (4th column, p-1058; FACS data, p-1056); high number = poorer binder; the column's head says only 'Rank'

T1 sequence (Q9NZQ7 19-290): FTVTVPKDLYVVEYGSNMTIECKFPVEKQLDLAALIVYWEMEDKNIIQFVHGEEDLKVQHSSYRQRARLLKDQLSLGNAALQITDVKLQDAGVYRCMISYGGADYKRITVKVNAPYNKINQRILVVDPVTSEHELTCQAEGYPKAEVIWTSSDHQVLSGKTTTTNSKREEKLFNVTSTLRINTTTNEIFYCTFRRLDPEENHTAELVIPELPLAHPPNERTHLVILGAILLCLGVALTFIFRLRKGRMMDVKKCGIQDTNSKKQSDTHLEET

Comp. binding (ratio conc. test mAb / conc. labelled murine BAP058 at the IC50) [1] | Rank [2] | Binder
1.71 | 2 | BAP058-hum05 (antibody, human IgG4 S228P, kappa, V domains shown, Humanized IgG4(S228P)/human kappa mAb expressed in CHO cells) VH: EVQLVQSGAEVKKPGATVKISCKVSGYTFTSYWMYWIRQSPSRGLEWLGRIDPNSGSTKYNEKFKNRLTISKDTSKNQVVLTMTNMDPVDTATYYCARDYRKGLYAMDYWGQGTTVTVSS VL: EIVLTQSPDFQSVTPKEKVTITCKASQDVGTAVAWYLQKPGQSPQLLIYWASTRHTGVPSRFSGSGSGTDFTFTISSLQPEDIATYYCQQYNSYPLTFGQGTKVEIKR
1.39 | 2 | BAP058-hum06 (antibody, human IgG4 S228P, kappa, V domains shown, Humanized IgG4(S228P)/human kappa mAb expressed in CHO cells) VH: EVQLVQSGAEVKKPGESLRISCKGSGYTFTSYWMYWIRQPPGKGLEWIGRIDPNSGSTKYNEKFKNRVTITADKSTSTAYMELSSLRSEDTAVYYCARDYRKGLYAMDYWGQGTTVTVSS VL: EIVLTQSPDFQSVTPKEKVTITCKASQDVGTAVAWYLQKPGQSPQLLIYWASTRHTGVPSRFSGSGSGTDFTFTISSLQPEDIATYYCQQYNSYPLTFGQGTKVEIKR
4.64 | 17 | BAP058-hum15 (antibody, human IgG4 S228P, kappa, V domains shown, Humanized IgG4(S228P)/human kappa mAb expressed in CHO cells) VH: EVQLVQSGAEVKKPGESLRISCKGSGYTFTSYWMYWIRQPPGKGLEWIGRIDPNSGSTKYNEKFKNRVTITADKSTSTAYMELSSLRSEDTAVYYCARDYRKGLYAMDYWGQGTTVTVSS VL: EIVLTQSPDFQSVTPKEKVTITCKASQDVGTAVAWYQQKPGQAPRLLIYWASTRHTGVPSRFSGSGSGTEFTLTISSLQPDDFATYYCQQYNSYPLTFGQGTKVEIKR
3.38 | 17 | BAP058-hum08 (antibody, human IgG4 S228P, kappa, Humanized IgG4(S228P)/human kappa mAb expressed in CHO cells) heavy: not shown light: DVVMTQSPLSLPVTLGQPASISCKASQDVGTAVAWYQQKPGQAPRLLIYWASTRHTGVPSRFSGSGSGTEFTLTISSLQPDDFATYYCQQYNSYPLTFGQGTKVEIKRTVAAPSVFIFPPSDEQLKSGTASVVCLLNNFYPREAKVQWKVDNALQSGNSQESVTEQDSKDSTYSLSSTLTLSKADYEKHKVYACEVTHQGLSSPVTKSFNRGEC
2.56 | 17 | BAP058-hum01 (antibody, human IgG4 S228P, kappa, V domains shown, Humanized IgG4(S228P)/human kappa mAb expressed in CHO cells) VH: QVQLVQSGAEVKKPGASVKVSCKASGYTFTSYWMYWVRQATGQGLEWMGRIDPNSGSTKYNEKFKNRFTISRDDSKNTAYLQMNSLKTEDTAVYYCARDYRKGLYAMDYWGQGTTVTVSS VL: DIVMTQTPLSLPVTPGEPASISCKASQDVGTAVAWYLQKPGQSPQLLIYWASTRHTGIPARFSGSGSGTEFTLTISSLQSEDFAVYYCQQYNSYPLTFGQGTKVEIKR
2.14 | 17 | BAP058-hum02 (antibody, human IgG4 S228P, kappa, V domains shown, Humanized IgG4(S228P)/human kappa mAb expressed in CHO cells) VH: QVQLVQSGAEVKKPGASVKVSCKASGYTFTSYWMYWVRQATGQGLEWMGRIDPNSGSTKYNEKFKNRFTISRDDSKNTAYLQMNSLKTEDTAVYYCARDYRKGLYAMDYWGQGTTVTVSS VL: DIQMTQSPSSLSASVGDRVTITCKASQDVGTAVAWYLQKPGQSPQLLIYWASTRHTGVPSRFSGSGSGTDFTLTISSLQPEDFATYYCQQYNSYPLTFGQGTKVEIKR
1.96 | 3 | BAP058-hum09 (antibody, human IgG4 S228P, kappa, V domains shown, Humanized IgG4(S228P)/human kappa mAb expressed in CHO cells) VH: EVQLVQSGAEVKKPGESLRISCKGSGYTFTSYWMYWIRQPPGKGLEWIGRIDPNSGSTKYNEKFKNRVTITADKSTSTAYMELSSLRSEDTAVYYCARDYRKGLYAMDYWGQGTTVTVSS VL: DIVMTQTPLSLPVTPGEPASISCKASQDVGTAVAWYLQKPGQSPQLLIYWASTRHTGIPARFSGSGSGTEFTLTISSLQSEDFAVYYCQQYNSYPLTFGQGTKVEIKR
 | 4 | BAP058-hum10 (antibody, human IgG4 S228P, kappa, V domains shown, Humanized IgG4(S228P)/human kappa mAb expressed in CHO cells) VH: QITLKESGPTLVKPTQTLTLTCTFSGYTFTSYWMYWVRQAPGKGLEWVSRIDPNSGSTKYNEKFKNRVTITADKSTSTAYMELSSLRSEDTAVYYCARDYRKGLYAMDYWGQGTTVTVSS VL: DVVMTQSPLSLPVTLGQPASISCKASQDVGTAVAWYQQKPGQAPRLLIYWASTRHTGVPSRFSGSGSGTEFTLTISSLQPDDFATYYCQQYNSYPLTFGQGTKVEIKR
